The test has as its target procaspase-3 (endogenous, in cytosolic extract of 293T cells) (human) (UniProt P42574). As to the kind of experiment: cell-based or functional assay.

procaspase-3 (endogenous, in cytosolic extract of 293T cells) (human), sequence (P42574 whole entry): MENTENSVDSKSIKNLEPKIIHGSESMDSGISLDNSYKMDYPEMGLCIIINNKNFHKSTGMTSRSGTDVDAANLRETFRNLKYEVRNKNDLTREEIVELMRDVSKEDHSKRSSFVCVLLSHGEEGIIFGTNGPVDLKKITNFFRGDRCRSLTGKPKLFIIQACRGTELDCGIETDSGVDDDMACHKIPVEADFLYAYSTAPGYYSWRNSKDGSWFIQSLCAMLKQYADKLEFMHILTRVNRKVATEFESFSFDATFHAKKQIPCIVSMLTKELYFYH

granzyme B (enzyme) showed a DEVDase activity of cytosolic extract of NK1R-transfected 293T cells of 7 fold.

(Values after patent publication US20050244894A1.)
